The values that follow come from PMC5727127, “H3K14ac is linked to methylation of H3K9 by the triple Tudor domain of SETDB1” (Nature Communications, 2017).

Test [1] concerns the target 3TD of SETDB1, W358A mutant, as used in ITC and crystals (UniProt Q15047). In words: ITC; 25 °C, VP-ITC, 20 mM Tris/HCl pH 7.0, 150 mM NaCl; protein 50 to 100 μM, ligand 1–2 mM; one-site binding model.
Test [2] addresses H3K9me2/K14ac peptide in solution (ITC; crystal with W358A), limits not stated. As to the kind of experiment: ITC. To be noted: read off a plot.
The target in test [3] is H3K9me1/K14ac peptide in solution (ITC). In words: ITC. To be noted: read off a plot.
Test [4] addresses H3K9me3/K14ac peptide in solution (ITC; crystals). In words: ITC. To be noted: read off a plot.

Regarding “H3K9me2/K14ac peptide in solution (ITC; crystal with W358A), limits not stated”, in test [1], the fold reduction of affinity against wildtype 3TD was 18 fold.

For the substance “H3K9me3/K14ac peptide in solution (ITC; crystals)”, the fold reduction of binding against wildtype 3TD in test [1] was 2 fold.

Regarding “triple Tudor domain (3TD) of SETDB1, wildtype, as used in solution (ITC, NMR, crystals) (from UniProt Q15047) Y268A”, the figures for the ratio to parent in test [2], in test [3] and in test [4] were 1.1, 1.5 and 0.18, respectively.
